Laboratory results: paper PMC5557676, “Structural Characterization of Acidic M17 Leucine Aminopeptidases from the TriTryps and Evaluation of Their Role in Nutrient Starvation in Trypanosoma brucei” (mSphere, 2017)
Values joined by “and” are separate entries in the source; they are usually repeats but may differ in a detail not shown here. Equal entries are not always repeated.

Key:
[1] = target: Leishmania major acidic M17 leucine aminopeptidase (LmLAP-A) (Leishmania major (Friedlin)); assay: crystal structure; crystals grown at 20°C by sitting- and hanging-drop vapor diffusion; apo, holo (Mn2+) and inhibitor-bound forms; homohexamer in the crystal
[2] = target: Leishmania major acidic M17 leucine aminopeptidase (LmLAP-A) (Leishmania major (Friedlin)); assay: SEC-MALS; SEC-MALLS on Superdex 200 10/300; 10 mM Tris pH 8.0, 200 mM NaCl, 1 mM DTT; 0.1, 0.5, 1.0 and 3.0 mg/ml (TbLAP-A also 5 mg/ml), incubated at least 3 h at room temperature
[3] = target: Trypanosoma brucei acidic M17 leucine aminopeptidase (TbLAP-A) (Trypanosoma brucei (Lister427)); assay: as above
[4] = target: Trypanosoma brucei acidic M17 leucine aminopeptidase (TbLAP-A) (Trypanosoma brucei (Lister427)); assay: crystal structure; crystals grown at 20°C by sitting- and hanging-drop vapor diffusion; apo, holo (Mn2+) and inhibitor-bound forms; homohexamer in the crystal
[5] = target: Trypanosoma brucei acidic M17 leucine aminopeptidase (TbLAP-A) (Trypanosoma brucei (Lister427)); assay: SEC-MALS; SEC-MALLS on Superdex 200 10/300; 10 mM Tris pH 8.0, 200 mM NaCl, 1 mM DTT; 0.1, 0.5, 1.0 and 3.0 mg/ml (TbLAP-A also 5 mg/ml), incubated at least 3 h at room temperature; remark: listed apart in the source
TbLAP-A [6] = target: T1, TbLAP-A (Trypanosoma brucei, UniProt Q385B0); assay: native gel zymography, AMC fluorescence; assay type: biochemical; details: 7.5 µM substrate, 50 mM Tris pH 8.0, 100 mM KCl, 1 mM MnCl2, 37 °C, 10 min
T1 construct: gene Tb11.02.4440; full length, E. coli BL21(DE3); N-terminal His6 tag, HRV 3C-cleaved or with a noncleavable His tag; homohexamer; N-terminal domain aa 2-197, C-terminal domain aa 215-521
T1 sequence (Q385B0 1-521): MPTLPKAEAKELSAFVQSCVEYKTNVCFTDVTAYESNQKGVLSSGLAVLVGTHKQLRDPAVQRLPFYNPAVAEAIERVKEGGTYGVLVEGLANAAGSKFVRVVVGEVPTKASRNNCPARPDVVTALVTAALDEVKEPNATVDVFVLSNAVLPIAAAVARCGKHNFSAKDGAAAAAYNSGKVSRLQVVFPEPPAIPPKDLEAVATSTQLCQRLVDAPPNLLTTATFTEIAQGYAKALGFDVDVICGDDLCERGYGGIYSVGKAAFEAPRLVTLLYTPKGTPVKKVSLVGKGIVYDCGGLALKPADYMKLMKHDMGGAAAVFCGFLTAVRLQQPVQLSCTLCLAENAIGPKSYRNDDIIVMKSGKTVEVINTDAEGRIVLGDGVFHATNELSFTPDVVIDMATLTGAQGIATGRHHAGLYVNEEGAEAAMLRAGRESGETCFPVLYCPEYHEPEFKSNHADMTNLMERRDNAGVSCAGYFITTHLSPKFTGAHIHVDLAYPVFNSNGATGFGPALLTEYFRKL

TbLAP-A [7] = target: T1, TbLAP-A; assay: X-ray crystal structure; assay type: binding; details: Mn2+ in both metal sites, active site
[8] = target: the molecule itself; assay: crystal structure; crystals grown at 20°C by sitting- and hanging-drop vapor diffusion; apo, holo (Mn2+) and inhibitor-bound forms; homohexamer in the crystal
[9] = target: the molecule itself; assay: SEC-MALS; SEC-MALLS on Superdex 200 10/300; 10 mM Tris pH 8.0, 200 mM NaCl, 1 mM DTT; 0.1, 0.5, 1.0 and 3.0 mg/ml (TbLAP-A also 5 mg/ml), incubated at least 3 h at room temperature

Leishmania major acidic M17 leucine aminopeptidase (LmLAP-A) (enzyme)
stoichiometry N [1]: 6 | stoichiometry N [2]: 6 and 3

Trypanosoma brucei acidic M17 leucine aminopeptidase (TbLAP-A) (enzyme)
stoichiometry N [3]: 6 | stoichiometry N [4]: 6 | stoichiometry N [5]: 3

Cc1cc(=O)oc2cc(NC(=O)[C@@H](N)CC(C)C)ccc12 [Leu-AMC]
native gel zymography, AMC fluorescence (TbLAP-A [6]): All three LAP-As were active against Leu-AMC

CCCCC[C@H](CC(=O)NO)C(=O)N[C@H](C(=O)N1CCC[C@H]1CO)C(C)C [actinonin]
X-ray crystal structure (TbLAP-A [7]; less than full occupancy, six chains): The TbLAP-A--actinonin complex had six molecules in the asymmetric unit

CC(C)C[C@H](NC(=O)[C@@H](O)[C@H](N)Cc1ccccc1)C(=O)O [bestatin]
X-ray crystal structure (TbLAP-A [7]; bicarbonate bound, 12 chains): TbLAP-A was cocrystallized with the inhibitor bestatin.

B1: Trypanosoma cruzi acidic M17 leucine aminopeptidase (TcLAP-A) (enzyme)
chain: MNRPPATDSGASEFVRSCVNFKTNVEFTDVDAYKKTHTAGLASTFVVILGTHAQLREDALKELPFYCPAVAEAIQRVKKGETYAVLAEGVKNEANERFVRVLVGEVPSEASRTNCSARPDVVVSLLSAALEEIKGPETKVDVFVCSTAALAIAVAAARSAKRNFTAKEGLAARGYCDNCVRLTVVFPTAPNPSPSELVVVATSTQLCQRLVDAPTNLLNTATFAEVAQSYAKELGCAVDVICGEELRERGYGGIYSVGKCAAEAPRLVTLSYKPKDETRKKVALVGKGIVYDSGGLSLKPTNFMTGMKRDMGGAAAVFCGFLTAVRLQMPIELSCTLCLAENAIGPDAYRNDDILTLKSGKTVEVNNTDAEGRLVLGDGVFHATHEISFKPDVLVDMATLTGAQGIATGHRHAGIFVNDEEEELSFLKAGRVSGETCFPVLYCPEYHVTEFRSPVADMRNSVKQVNNASVSCAGHFVANHLSPDFKGKHIHVDMAFPAFENDKATGFGPALLMEYLRNLR
stoichiometry N [8]: 6 | stoichiometry N [9]: 3
